Source: PMC9119445, “Ustilago maydis telomere protein Pot1 harbors an extra N-terminal OB fold and regulates homology-directed DNA repair factors in a dichotomous and context-dependent manner”

Legend:
[1] = target: Ustilago maydis Rad51 (U. maydis) (UniProt Q99133)
[2] = target: UmPot1 N-terminal fragment (OB-N) (Ustilago maydis, UniProt A0A0D1CUA9 1-350); assay: EMSA; 25 mM HEPES-KOH pH 7.5, 5% glycerol, 3 mM MgCl2, 0.1 mM EDTA, 1 mM DTT, 0.5 ug/ul BSA, 1-10 nM probe, 22 C, 15 min; 6% native PAGE in 1x TBE; conditions: protein: recombinant; tags: C-terminal FLAG; His6-SUMO removed by ULP1; label: 5'-32P
UmPot1 OB12 (OB1-OB2) = UmPot1 OB12 (OB1-OB2) (Ustilago maydis, UniProt A0A0D1CUA9 351-700); assay: as above; conditions: protein: recombinant; tags: C-terminal FLAG; His6-SUMO removed by ULP1; label: 5'-32P
UmPot1 OB3 = UmPot1 OB3 (Ustilago maydis, UniProt A0A0D1CUA9 701-1050); assay: as above; conditions: protein: recombinant; tags: C-terminal FLAG; His6-SUMO removed by ULP1; label: 5'-32P

Sequence of Ustilago maydis Rad51 (U. maydis) (Q99133 whole entry, the tested form may be a part): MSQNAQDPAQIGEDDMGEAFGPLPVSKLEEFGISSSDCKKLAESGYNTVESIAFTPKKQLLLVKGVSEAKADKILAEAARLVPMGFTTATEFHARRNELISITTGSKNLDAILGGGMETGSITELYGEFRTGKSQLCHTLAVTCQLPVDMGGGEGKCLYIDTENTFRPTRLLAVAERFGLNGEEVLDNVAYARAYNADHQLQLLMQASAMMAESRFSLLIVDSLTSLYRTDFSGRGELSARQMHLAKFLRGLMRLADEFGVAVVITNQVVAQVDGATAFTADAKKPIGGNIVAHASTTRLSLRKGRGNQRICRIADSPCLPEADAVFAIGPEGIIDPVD

Molecule	strand exchange activity of Rad51 (oligonucleotide-based assay, 70-mer ssDNA and labeled 39-mer dsDNA), stimulation by Pot1 [1]	binding result [2]	binding result (UmPot1 OB12 (OB1-OB2))	binding result (UmPot1 OB3)
Ustilago maydis Pot1 with a C-terminal FLAG tag (Pot1-FLAG) (natural protein)	2 fold			
TTAGGGTTAGGGTTAGGGTTAGGG (ssDNA) [TTAGGG4 (G4)]		no binding	binds	no binding
